Test results reported in patent US20160083481A1 (INSERM INSTITUT NATIONAL DE LA SANT ET DE LA RECHERCHE M …, published 2016).

Columns and labels:
[1] = target: T1, Glycophorin B in the crude glycophorins mixture (human, UniProt P06028 20-91); assay: western blot of the crude glycophorins mixture, PVDF, with and without NaOH beta-elimination
T1 construct: mature; also called GPB

[2] = target: T2, Purified glycophorin A (human, from red cell membranes) (human, UniProt P02724 20-150); assay: SPR, Biacore X100, purified GPA amine-coupled on a CM5 chip (400 RU), IH4 as analyte, 1:1 Langmuir fit
T2 construct: mature; also called GPA; Human Glycophorin A
T2 sequence (looked up): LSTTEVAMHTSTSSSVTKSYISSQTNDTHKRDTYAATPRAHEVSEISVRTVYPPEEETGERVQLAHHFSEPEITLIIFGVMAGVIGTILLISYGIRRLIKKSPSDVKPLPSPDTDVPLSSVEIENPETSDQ
Method: SPR recordings obtained in a Biacore X100 apparatus.
SPR analysis of VHH interactions used a Biacore X100 apparatus (GE Healthcare). Purified GPA was immobilized on a CM5 chip in the Fc2 channel to a level of 400 Resonance units using amine coupling chemistry as recommended by the manufacturer. Reference channel Fc1 was simply activated and deactivated through ethanolamine. 6 different concentrations of analyte were injected onto the chip for 180 seconds, and dissociation let to proceed for 600 seconds. Data were analyzed using BIA Evaluation software associated to the apparatus.
Data can be easily fitted using 1:1 Langmuir fit.

B1: IH4 (VHH)
VHH: QVQLQESGGGSVQAGGSLRLSCVASGYTDSTYCVGWFRQAPGKEREGVARINTISGRPWYADSVKGRFTISQDNSKNTVFLQMNSLKPEDTAIYYCTLTTANSRGFCSGGYNYKGQGQVTVS
notes: also called VHH IH4; autonomous IH4; not shown: A polyhistidine tail is also present: C-terminal after the HA tag (pHEN6cPm)
binding result [1]: no binding
Kd [2]: 33.7 nM
koff [2]: 0.019 s⁻¹
kon [2]: 573000 M⁻¹ s⁻¹
